T1: ADAM9 (Mus musculus, UniProt Q61072)
T1 construct: expressed in transfected cells; host or cells: CHO AA8 Tet-Off cells (Clontech), clone 3, co-expressing human CD23b
T1 sequence (Q61072 206-845 limits assumed): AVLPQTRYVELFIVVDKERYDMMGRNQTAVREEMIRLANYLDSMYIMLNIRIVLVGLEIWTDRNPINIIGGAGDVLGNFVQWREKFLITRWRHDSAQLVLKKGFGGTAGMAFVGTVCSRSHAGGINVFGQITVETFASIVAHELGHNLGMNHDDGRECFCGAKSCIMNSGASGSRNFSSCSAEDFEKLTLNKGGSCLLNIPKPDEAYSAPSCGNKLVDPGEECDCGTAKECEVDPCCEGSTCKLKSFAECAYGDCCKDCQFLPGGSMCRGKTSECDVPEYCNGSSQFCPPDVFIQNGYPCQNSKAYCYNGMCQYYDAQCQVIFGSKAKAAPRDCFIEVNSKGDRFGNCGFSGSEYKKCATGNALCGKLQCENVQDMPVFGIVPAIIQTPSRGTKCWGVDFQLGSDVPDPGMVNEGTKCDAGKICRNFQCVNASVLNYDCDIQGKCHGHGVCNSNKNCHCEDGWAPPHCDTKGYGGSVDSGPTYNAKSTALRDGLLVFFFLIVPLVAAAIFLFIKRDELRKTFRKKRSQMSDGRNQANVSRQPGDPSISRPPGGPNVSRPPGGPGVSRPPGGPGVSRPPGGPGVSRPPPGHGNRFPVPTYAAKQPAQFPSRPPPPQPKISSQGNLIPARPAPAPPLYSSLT


Assays:
ADAM9 = target: T1, ADAM9; test: CD23 shedding in CHO AA8 clone 3 cells with tet-regulated ADAM9 "On" (s-CD23 ELISA); assay type: cell-based, murine; conditions: CHO AA8 clone 3, absence of tetracycline (ADAM9 "On"), 16 hours; 2 μM batimastat or 20 nM-1 μM TIMP; FIG. 3A
Method: CHO AA8 cells (Clontech), which constitutively express human CD23b and a tet regulatable ADAM9 (clone 3, described above), were cultured in the absence of tetracycline (ADAM9 expression “On”) as well as the presence or absence of the metalloproteinase inhibitor batimastat (BB-94, British Biotechnology) as a broad spectrum MMP inhibitor, as well as various concentrations of either TIMP-1, TIMP-2 or TIMP-3. After 16 hours, aliquots of the respective culture supernatants were analysed by ELISA for the formation of s-CD23 (The Binding Site).
[…] cells were cultured in the presence (ADAM9 expression “Off”) or absence (ADAM9 expression “On”) of tetracylin (Tc). Under both conditions, the influence of batimastat (BB-94) on CD23 shedding was analyzed. The concentration of s-CD23 in the culture supernatants was determined by ELISA. In parallel, the produced s-CD23 cleavage products were analyzed by Western blot analyses (FIG. 4). Untransfected CHO AA8 cells (WT) were used as a negative control in the ELISA assays. In the absence of Tc (ADAM9 expression “On”), about 2-3 times the amount of s-CD23 was produced compared to cells kept in the presence of Tc (ADAM9 expression “Off”). […] The 33 kDa form of s-CD23 and, in minor amounts, the 25 kDa cleavage fragment were detected by Western blot analyses. […]

ADAM17 (TACE) = ADAM17 (TACE) (Homo sapiens, UniProt P78536); conditions: stated as known; cited from earlier work
Chain of ADAM17 (TACE) (P78536 215-824, species assumed): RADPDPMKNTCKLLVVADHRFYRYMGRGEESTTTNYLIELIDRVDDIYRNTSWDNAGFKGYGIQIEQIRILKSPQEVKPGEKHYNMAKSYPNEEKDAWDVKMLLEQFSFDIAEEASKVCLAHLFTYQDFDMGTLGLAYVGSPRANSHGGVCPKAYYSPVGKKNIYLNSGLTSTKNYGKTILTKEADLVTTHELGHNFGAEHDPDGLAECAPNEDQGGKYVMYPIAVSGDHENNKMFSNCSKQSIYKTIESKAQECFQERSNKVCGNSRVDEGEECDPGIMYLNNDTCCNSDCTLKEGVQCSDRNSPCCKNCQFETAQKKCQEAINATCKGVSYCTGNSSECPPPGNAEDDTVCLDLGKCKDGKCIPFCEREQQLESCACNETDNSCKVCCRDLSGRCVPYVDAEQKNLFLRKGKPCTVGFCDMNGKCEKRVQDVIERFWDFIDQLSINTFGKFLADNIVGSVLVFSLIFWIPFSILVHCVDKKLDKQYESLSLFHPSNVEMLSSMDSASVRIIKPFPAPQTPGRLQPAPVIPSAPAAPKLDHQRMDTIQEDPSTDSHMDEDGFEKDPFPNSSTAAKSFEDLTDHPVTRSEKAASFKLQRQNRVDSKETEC

Row | block of proteolytic release of CD23 from the membrane (formation of s-CD23 by ELISA) (ADAM9) | Molecule | inhibition of ADAM17 (TACE) (ADAM17 (TACE))
1 | could not be inhibited | TIMP-1: tissue inhibitor of metalloproteinases 1 | –
2 | could not be inhibited | TIMP-3: tissue inhibitor of metalloproteinases 3 (protein, UniProt P35625 24-211, looked up) Metalloproteinase inhibitor 3: CTCSPSHPQDAFCNSDIVIRAKVVGKKLVKEGPFGTLVYTIKQMKMYRGFTKMPHVQYIHTEASESLCGLKLEVNKYQYLLTGRVYDGKMYTGLCNFVERWDQLTLSQRKGLNYRYHLGCNCKIKSCYYLPCFVTSKNECLWTDMLSNFGYPGYQSKHYACIRQKGGYCSWYRGWAPPDKSIINATDP | inhibited
